Experiments:
Assay in all cases: cell-based or functional assay
[1] = biological target: HIV-1 Env of strain CNE17 (HIV-1)
[2] = biological target: HIV-1 strain CNE58 envelope (gp120) (HIV-1)
[3] = biological target: HIV-1 strain ZM249M.PL1 envelope (gp120) (HIV-1)
[4] = biological target: HIV-1 strain 1056_10_TA11_1826 envelope (gp120) (HIV-1)
[5] = biological target: HIV-1 strain AC10.0.29 envelope (gp120) (HIV-1)
[6] = biological target: HIV-1 strain SC422661.8 envelope (gp120) (HIV-1)
[7] = biological target: HIV-1 Env of strain WITO4160.33 (HIV-1)
[8] = biological target: HIV-1 Env of strain Du422.1 (HIV-1)
[9] = biological target: HIV-1 Env of strain THRO4156.18 (HIV-1)
[10] = biological target: HIV-1 strain CAP45.2.00.G3 envelope (gp120) (HIV-1)
[11] = biological target: HIV-1 strain R1166.c01 envelope (gp120) (HIV-1)
[12] = biological target: HIV-1 Env of strain T255-34 (HIV-1)
[13] = biological target: HIV-1 Env of strain CAAN5342.A2 (HIV-1)
[14] = biological target: HIV-1 Env of strain CNE20 (HIV-1)
[15] = biological target: HIV-1 strain CAAN5342.A2 envelope (gp120) (HIV-1)
[16] = biological target: HIV-1 strain ZM233M.PB6 envelope (gp120) (HIV-1)
[17] = biological target: HIV-1 strain QH0692.42 envelope (gp120) (HIV-1)
[18] = biological target: HIV-1 Env of strain TROJO4551.58 (HIV-1)
[19] = biological target: HIV-1 Env of strain 89-F1_2_25 (HIV-1)
[20] = biological target: HIV-1 Env of strain CNE58 (HIV-1)
[21] = biological target: HIV-1 Env of strain R2184.c04 (HIV-1)
[22] = biological target: HIV-1 Env of strain Ce2010_F5 (HIV-1)
[23] = biological target: HIV-1 Env of strain ZM214M.PL15 (HIV-1)
[24] = biological target: HIV-1 Env of strain 6811.v7.c18 (HIV-1)
[25] = biological target: HIV-1 strain 62357_14_D3_4589 envelope (gp120) (HIV-1)
[26] = biological target: HIV-1 strain Ce703010054_2A2 envelope (gp120) (HIV-1)
[27] = biological target: HIV-1 strain CNE53 envelope (gp120) (HIV-1)
[28] = biological target: HIV-1 Env of strain C3347.c11 (HIV-1)
[29] = biological target: HIV-1 Env of strain 3817.v2.c59 (HIV-1)
[30] = biological target: HIV-1 strain 1006_11_C3_1601 envelope (gp120) (HIV-1)
[31] = biological target: HIV-1 strain HIV-16845-2.22 envelope (gp120) (HIV-1)
[32] = biological target: HIV-1 strain CAP210.2.00.E8 envelope (gp120) (HIV-1)
[33] = biological target: HIV-1 Env of strain SC422661.8 (HIV-1)
[34] = biological target: HIV-1 Env of strain C2101.c01 (HIV-1)
[35] = biological target: HIV-1 Env of strain Q259.d2.17 (HIV-1)
[36] = biological target: HIV-1 strain THRO4156.18 envelope (gp120) (HIV-1)
[37] = biological target: HIV-1 strain 0330.v4.c3 envelope (gp120) (HIV-1)
[38] = biological target: HIV-1 strain T251-18 envelope (gp120) (HIV-1)
[39] = biological target: HIV-1 Env of strain Ce2060_G9 (HIV-1)
[40] = biological target: HIV-1 strain Q461.e2 envelope (gp120) (HIV-1)
[41] = biological target: HIV-1 strain ZM247v1(Rev-) envelope (gp120) (HIV-1)
[42] = biological target: HIV-1 Env of strain Q23.17 (HIV-1)
[43] = biological target: HIV-1 strain Q769.d22 envelope (gp120) (HIV-1)
[44] = biological target: HIV-1 Env of strain HIV-16845-2.22 (HIV-1)
[45] = biological target: HIV-1 strain CNE30 envelope (gp120) (HIV-1)
[46] = biological target: HIV-1 Env of strain 231965.c01 (HIV-1)
[47] = biological target: HIV-1 strain 231966.c02 envelope (gp120) (HIV-1)
[48] = biological target: HIV-1 Env of strain CNE21 (HIV-1)
[49] = biological target: HIV-1 strain Ce0682_E4 envelope (gp120) (HIV-1)
[50] = biological target: HIV-1 strain Ce2060_G9 envelope (gp120) (HIV-1)

B1: NIH45-46^G54Y IgG (antibody, name in Kabat numbering, V domains shown)
VH: QVRLSQSGGQMKKPGESMRLSCRASGYEFLNCPINWIRLAPGRRPEWMGWLKPRYGAVNYARKFQGRVTMTRDVYSDTAFLELRSLTSDDTAVYFCTRGKYCTARDYYNWDFEHWGRGAPVTVSS
VL: EIVLTQSPATLSLSPGETAIISCRTSQSGSLAWYQQRPGQAPRLVIYSGSTRAAGIPDRFSGSRWGADYNLSISNLESGDFGVYYCQQYEFFGQGTKVQVDI
- neutralization IC50 [1]: 0.073 µg/mL
- neutralization IC80 [2]: 0.11 µg/mL
- neutralization IC80 [3]: 0.011 µg/mL
- neutralization IC80 [4]: 0.189 µg/mL
- neutralization IC80 [5]: 0.9 µg/mL
- neutralization IC80 [6]: 0.09 µg/mL
- neutralization IC50 [7]: 0.03 µg/mL
- neutralization IC50 [8]: > 50 µg/mL
- neutralization IC50 [9]: 0.66 µg/mL
- neutralization IC80 [10]: > 50 µg/mL
- neutralization IC80 [11]: 0.84 µg/mL
- neutralization IC50 [12]: 0.04 µg/mL
- neutralization IC50 [13]: 0.1 µg/mL
- neutralization IC50 [14]: 0.33 µg/mL
- neutralization IC80 [15]: 0.27 µg/mL
- neutralization IC80 [16]: 0.78 µg/mL
- neutralization IC80 [17]: 1.5 µg/mL
- neutralization IC50 [18]: 0.03 µg/mL
- neutralization IC50 [19]: > 50 µg/mL
- neutralization IC50 [20]: 0.04 µg/mL
- neutralization IC50 [21]: 0.015 µg/mL
- neutralization IC50 [22]: 0.049 µg/mL
- neutralization IC50 [23]: 0.06 µg/mL
- neutralization IC50 [24]: 0.011 µg/mL
- neutralization IC80 [25]: 0.09 µg/mL
- neutralization IC80 [26]: 0.07 µg/mL
- neutralization IC80 [27]: 0.027 µg/mL
- neutralization IC50 [28]: 0.011 µg/mL
- neutralization IC50 [29]: > 50 µg/mL
- neutralization IC80 [30]: 0.021 µg/mL
- neutralization IC80 [31]: 2.75 µg/mL
- neutralization IC80 [32]: > 50 µg/mL
- neutralization IC50 [33]: 0.04 µg/mL
- neutralization IC50 [34]: 0.09 µg/mL
- neutralization IC50 [35]: 0.009 µg/mL
- neutralization IC80 [36]: 2.14 µg/mL
- neutralization IC80 [37]: 0.09 µg/mL
- neutralization IC80 [38]: 1.16 µg/mL
- neutralization IC50 [39]: 0.021 µg/mL
- neutralization IC80 [40]: 0.103 µg/mL
- neutralization IC80 [41]: 3.57 µg/mL
- neutralization IC50 [42]: 0.02 µg/mL
- neutralization IC80 [43]: 0.024 µg/mL
- neutralization IC50 [44]: 0.59 µg/mL
- neutralization IC80 [45]: 0.263 µg/mL
- neutralization IC50 [46]: 0.025 µg/mL
- neutralization IC80 [47]: 0.23 µg/mL
- neutralization IC50 [48]: 0.07 µg/mL
- neutralization IC80 [49]: 0.065 µg/mL
- neutralization IC80 [50]: 0.068 µg/mL

B2: NIH45-46^G54W IgG (antibody, name in Kabat numbering, V domains shown)
VH: QVRLSQSGGQMKKPGESMRLSCRASGYEFLNCPINWIRLAPGRRPEWMGWLKPRWGAVNYARKFQGRVTMTRDVYSDTAFLELRSLTSDDTAVYFCTRGKYCTARDYYNWDFEHWGRGAPVTVSS
VL: EIVLTQSPATLSLSPGETAIISCRTSQSGSLAWYQQRPGQAPRLVIYSGSTRAAGIPDRFSGSRWGADYNLSISNLESGDFGVYYCQQYEFFGQGTKVQVDI
- neutralization IC50 [1]: 0.036 µg/mL
- neutralization IC80 [2]: 0.05 µg/mL
- neutralization IC80 [3]: 0.007 µg/mL
- neutralization IC80 [4]: 0.16 µg/mL
- neutralization IC80 [5]: 0.63 µg/mL
- neutralization IC80 [6]: 0.07 µg/mL
- neutralization IC50 [7]: 0.01 µg/mL
- neutralization IC50 [8]: > 50 µg/mL
- neutralization IC50 [9]: 0.54 µg/mL
- neutralization IC80 [10]: > 50 µg/mL
- neutralization IC80 [11]: 0.51 µg/mL
- improvement of neutralization potency over NIH45-46 [12]: > 700 fold
- neutralization IC50 [12]: < 0.001 µg/mL
- neutralization IC50 [13]: 0.07 µg/mL
- neutralization IC50 [14]: 0.04 µg/mL
- neutralization IC80 [15]: 0.21 µg/mL
- neutralization IC80 [16]: 0.11 µg/mL
- neutralization IC80 [17]: 1.12 µg/mL
- neutralization IC50 [18]: 0.01 µg/mL
- neutralization IC50 [19]: > 50 µg/mL
- neutralization IC50 [20]: 0.02 µg/mL
- neutralization IC50 [21]: 0.005 µg/mL
- neutralization IC50 [22]: 0.038 µg/mL
- neutralization IC50 [23]: 0.03 µg/mL
- neutralization IC50 [24]: < 0.001 µg/mL
- neutralization IC80 [25]: 0.07 µg/mL
- neutralization IC80 [26]: 0.077 µg/mL
- neutralization IC80 [27]: 0.005 µg/mL
- neutralization IC50 [28]: < 0.001 µg/mL
- neutralization IC50 [29]: > 50 µg/mL
- neutralization IC80 [30]: 0.008 µg/mL
- neutralization IC80 [31]: 2.1 µg/mL
- neutralization IC80 [32]: > 50 µg/mL
- neutralization IC50 [33]: 0.02 µg/mL
- neutralization IC50 [34]: 0.04 µg/mL
- neutralization IC50 [35]: < 0.001 µg/mL
- neutralization IC80 [36]: 1.81 µg/mL
- neutralization IC80 [37]: 0.11 µg/mL
- neutralization IC80 [38]: 0.92 µg/mL
- neutralization IC50 [39]: 0.005 µg/mL
- neutralization IC80 [40]: 0.091 µg/mL
- neutralization IC80 [41]: 2.6 µg/mL
- neutralization IC50 [42]: 0.01 µg/mL
- neutralization IC80 [43]: 0.009 µg/mL
- neutralization IC50 [44]: 0.45 µg/mL
- neutralization IC80 [45]: 0.196 µg/mL
- neutralization IC50 [46]: < 0.001 µg/mL
- neutralization IC80 [47]: 0.11 µg/mL
- neutralization IC50 [48]: 0.03 µg/mL
- neutralization IC80 [49]: 0.039 µg/mL
- neutralization IC80 [50]: 0.042 µg/mL
